Values joined by “and” are separate entries in the source; they are usually repeats but may differ in a detail not shown here. Equal values may be shown once.
What was measured:
[1] = biological target: mTTYH3 ECD1-T4L-ECD2 (mouse | not stated) (UniProt Q6P5F7); test: cross-linking; secreted protein from clarified insect cell medium, DSS at 0, 10, 50, 100, 200, 2000 uM; western blot
[2] = biological target: the molecule itself; test: native gel or EMSA; Blue-Native PAGE of HEK 293 lysates in 0.05% (mTTYH1) or 0.1% (mTTYH3) DDM, 50 mM NaCl, 20 mM Tris-HCl pH 7.5; anti-FLAG western blot
[3] = biological target: the molecule itself; test: cross-linking; in situ on adherent HEK 293 cells with membrane-impermeable BS3 (0, 10, 50, 100, 200, 2000 uM), 1 h at room temperature; lysis in 1% DDM; SDS-PAGE and anti-FLAG western blot
[4] = biological target: the molecule itself; test: SEC; FSEC of HEK 293 cells solubilised in 1% DDM, Superdex 200 Increase, 150 mM NaCl, 50 mM Tris-HCl pH 7.5, 1 mM DDM; EGFP fluorescence; also after 10 min at 20-80 C (FSEC-TS) or with 20 mM 2-ME, both of which shift the population toward dimers
[5] = biological target: the molecule itself; test: SEC-MALS; purified mTTYH1-GFP-8xHis, 50 uL at 1.18 mg/mL, Superdex 200 Increase, 20 mM Tris pH 7.5, 150 mM NaCl, 0.3 mM DDM; protein conjugate analysis
[6] = biological target: the molecule itself; test: single-molecule subunit counting (photobleaching steps of EGFP, TIRFM); EGFP fusions at low density in the plasma membrane of living Xenopus laevis oocytes, room temperature; bleaching steps counted by hand, fit to a binomial distribution (p = 0.7)

Molecule: mTTYH3 ECD1-T4L-ECD2 (from UniProt Q6P5F7 107-209; Q6P5F7 260-386) (domain or fragment)
- stoichiometry N [1]: 4

B1: FLAG-tagged mTTYH1 (natural protein, mouse, UniProt Q9D3A9 1-450, looked up)
chain: MGAPPGYRPSAWVHLLHQLPRADFQLRPVPSGFAPRDQEYQQALLLVAALAGLGLGLSLIFIAVYLIRFCCCRPPEPHGAKSPPPGGGCVTWSCIAALLVGCAGIGIGFYGNSETSDGVSQLSSALLHANHTLSTIDDVVLETVERLGEAVKTELTTLEEVLSVRMELVAATRGARRQAEAAAQYLQGLAFWQGVSLSPVQVAEDVTFVEEYRWLAYVLLLLLVLLVCLFTLLGLAKQSKWLVVVMTAMSLLVLVLSWGSMGLEAATAVGLSDFCSNPDTYVLNLTQEETGLSSDILSYYFLCNQAVSNPFQQRLTLSQRALASIHSQLQGLEREAIPQFSAAQKPLLSLEETLNVTERSFHQLVALLHCRSLHKDYGSALRGLCEDALEGLLFLMLFSLLSAGALATTLCSLPRAWALFPPSDDYDDTDDDDPFNPQESKRFVQWQSSI
notes: mouse Tweety homolog 1 (mTTYH1), intact protein; so the FLAG is probably C-terminal; also called mouse Tweety homolog 1; source: HEK 293 cells (HEK293T), transiently transfected; cross-linked on the cells or in DDM lysate
- stoichiometry N [2]: 2
- stoichiometry N [3]: 4

B2: mTTYH1-EGFP (HEK 293, pEGFP-N1) (natural protein, mouse, UniProt Q9D3A9 1-450, looked up)
chain: B1 chain
notes: mouse Tweety homolog 1 (mTTYH1), intact protein; also called EGFP-fused mTTYH1; source: HEK 293 cells, transiently transfected, detergent-solubilised lysate; not shown: EGFP, C-terminal, kept
- stoichiometry N [4]: 4 and 2

B3: mTTYH3-EGFP (HEK 293, pEGFP-N1) (natural protein, mouse, UniProt Q6P5F7 1-524, looked up)
chain: MAGVSYAAPWWVSLLHRLPHFDLRWEATSSQFRPEDADYQQALLLLGATALACLALDLLFLLFYSFWLCCRRRKTDEHLDADCCCTAWCVIITTLVCSAGIAVGFYGNGETSDGIHRATYSLRHANRTVAGVQDRVWDTAAALNRTAEPNLQSLERQLAGRQEPLRAVQRLQTLLGTLLGYTAAIPFWRNPGVSLEVLAEQVDLYDWYRWLGYLGLLLLDVIICLLVLVGLIRSSKGILVGVCLLGVLALVISWGALGLELAVSVGSSDFCVDPDTFVTKMVEEHSVLSGDILQYYLACSPRATNPFQQKLSGSHKALVEMQDVVAELLRNVPREHPATKDPLLRVQEVLNGTEVNLQHLTALVDCRSLHLDYVQALTGFCYDGVEGLIYLALFSFVTALMFSSIVCSIPHTWQQKRGPDDDGEEETAPGPRQAHDSLYRVHMPSLYSCGSSYGSEASIPAAAHTVSNAPVTEYMSQNANFQNPRCENTPLIGRESPPPSYTSSMRAKYLATSQPRPDSSGSGH
notes: mouse Tweety homolog 3 (mTTYH3), intact protein; also called EGFP-fused mTTYH3; mTTYH3-GFP; source: HEK 293 cells, transiently transfected, detergent-solubilised lysate; not shown: EGFP, C-terminal, kept
- stoichiometry N [4]: 4 and 2

B4: mTTYH1-GFP-8xHis (natural protein, mouse, UniProt Q9D3A9 1-450, looked up)
chain: B1 chain
modifications: N-glycosylated (HexNAc at Asn; sites not given)
notes: mouse Tweety homolog 1 (mTTYH1), intact protein; also called purified mTTYH1-GFP; intact mTTYH1-GFP; not shown: EGFP, C-terminal, kept; His8, C-terminal, kept
- stoichiometry N [5]: 4 and 2

B5: FLAG-tagged mTTYH3 (natural protein, mouse, UniProt Q6P5F7 1-524, looked up)
chain: B3 chain
notes: mouse Tweety homolog 3 (mTTYH3), intact protein; so the FLAG is probably C-terminal; also called mouse Tweety homolog 3; source: HEK 293 cells (HEK293T), transiently transfected; cross-linked on the cells or in DDM lysate
- stoichiometry N [2]: 2
- stoichiometry N [3]: 4

B6: mTTYH1-EGFP (Xenopus oocytes, pGH19) (natural protein, mouse, UniProt Q9D3A9 1-450, looked up)
chain: B1 chain
notes: mouse Tweety homolog 1 (mTTYH1), intact protein; also called EGFP-fused mTTYH1; source: Xenopus laevis oocytes injected with about 1 ng cRNA, at the plasma membrane; not shown: EGFP, C-terminal, kept
- stoichiometry N [6]: 4

B7: mTTYH3-EGFP (Xenopus oocytes, pGH19) (natural protein, mouse, UniProt Q6P5F7 1-524, looked up)
chain: B3 chain
notes: mouse Tweety homolog 3 (mTTYH3), intact protein; also called EGFP-fused mTTYH3; source: Xenopus laevis oocytes injected with about 1 ng cRNA, at the plasma membrane; not shown: EGFP, C-terminal, kept
- stoichiometry N [6]: 4

B8: EGFP fusion of KCNH1 (natural protein, UniProt O95259 1-989, looked up)
chain: MTMAGGRRGLVAPQNTFLENIVRRSNDTNFVLGNAQIVDWPIVYSNDGFCKLSGYHRAEVMQKSSTCSFMYGELTDKDTIEKVRQTFENYEMNSFEILMYKKNRTPVWFFVKIAPIRNEQDKVVLFLCTFSDITAFKQPIEDDSCKGWGKFARLTRALTSSRGVLQQLAPSVQKGENVHKHSRLAEVLQLGSDILPQYKQEAPKTPPHIILHYCVFKTTWDWIILILTFYTAILVPYNVSFKTRQNNVAWLVVDSIVDVIFLVDIVLNFHTTFVGPAGEVISDPKLIRMNYLKTWFVIDLLSCLPYDVINAFENVDEVSAFMGDPGKIGFADQIPPPLEGRESQGISSLFSSLKVVRLLRLGRVARKLDHYIEYGAAVLVLLVCVFGLAAHWMACIWYSIGDYEIFDEDTKTIRNNSWLYQLAMDIGTPYQFNGSGSGKWEGGPSKNSVYISSLYFTMTSLTSVGFGNIAPSTDIEKIFAVAIMMIGSLLYATIFGNVTTIFQQMYANTNRYHEMLNSVRDFLKLYQVPKGLSERVMDYIVSTWSMSRGIDTEKVLQICPKDMRADICVHLNRKVFKEHPAFRLASDGCLRALAMEFQTVHCAPGDLIYHAGESVDSLCFVVSGSLEVIQDDEVVAILGKGDVFGDVFWKEATLAQSCANVRALTYCDLHVIKRDALQKVLEFYTAFSHSFSRNLILTYNLRKRIVFRKISDVKREEEERMKRKNEAPLILPPDHPVRRLFQRFRQQKEARLAAERGGRDLDDLDVEKGNVLTEHASANHSLVKASVVTVRESPATPVSFQAASTSGVPDHAKLQAPGSECLGPKGGGGDCAKRKSWARFKDACGKSEDWNKVSKAESMETLPERTKASGEATLKKTDSCDSGITKSDLRLDNVGEARSPQDRSPILAEVKHSFYPIPEQTLQATVLEVRHELKEDIKALNAKMTNIEKQLSEILRILTSRRSSQSPQELFEISRPQSPESERDIFGAS
notes: KCNH1, voltage-gated K+ channel; Positive control of the subunit counting; also called EGFP-fused KCNH1; source: Xenopus laevis oocytes injected with 1 ng cRNA, at the plasma membrane
- stoichiometry N [6]: 4

From PMC9427776, “TTYH family members form tetrameric complexes at the cell membrane” (Communications Biology, 2022)
